Reference: patent US20220281962A1

Columns and labels:
[1] = target: recombinant human tetranectin (TN), residue 22-202 with a C-terminal histidine tag (human) (UniProt P05452); assay: OpenSPR; TN chip, HMGB1 200 nM, without mAb8 pre-treatment
[2] = target: recombinant human tetranectin (TN), residue 22-202 with a C-terminal histidine tag (human) (UniProt P05452); assay: OpenSPR; TN chip pre-treated with mAb8 (29.6 nM), HMGB1 200 nM
[3] = target: recombinant human tetranectin (TN), residue 22-202 with a C-terminal histidine tag (human) (UniProt P05452); assay: OpenSPR; TN chip with against without mAb8 (29.6 nM) pre-treatment
[4] = target: recombinant human tetranectin (TN), residue 22-202 with a C-terminal histidine tag (human) (UniProt P05452); assay: OpenSPR; TN on the chip, HMGB1 applied (FIG. 5A, Lower Panel, per paragraph 223)
[5] = target: recombinant human tetranectin (TN), residue 22-202 with a C-terminal histidine tag (human) (UniProt P05452); assay: OpenSPR; TN chip pre-treated with mAb8 (29.6 nM), HMGB1 at various concentrations
[6] = target: recombinant human tetranectin (TN), residue 22-202 with a C-terminal histidine tag (human) (UniProt P05452); assay: OpenSPR; TN immobilized on the chip, HMGB1 applied at 400, 200, 100 and 25 (no unit on the sheet) [A) lower panel]
[7] = target: recombinant CBP-HMGB1 (rat HMGB1 with a calmodulin-binding peptide tag) (rat) (UniProt P63159); assay: OpenSPR; HMGB1 immobilized on the chip, TN applied at 280, 93, 31 and 10 (no unit on the sheet) [A) upper panel]
Chain of recombinant CBP-HMGB1 (rat HMGB1 with a calmodulin-binding peptide tag) (rat) (P63159 whole entry, form in doubt): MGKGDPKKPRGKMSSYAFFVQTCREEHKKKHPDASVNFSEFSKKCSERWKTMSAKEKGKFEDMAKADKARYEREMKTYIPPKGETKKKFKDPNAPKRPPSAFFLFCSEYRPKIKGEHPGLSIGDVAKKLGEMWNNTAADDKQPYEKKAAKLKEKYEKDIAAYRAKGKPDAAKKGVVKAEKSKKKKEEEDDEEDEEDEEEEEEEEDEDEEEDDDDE

[8] = target: recombinant CBP-HMGB1 (rat HMGB1 with a calmodulin-binding peptide tag) (rat) (UniProt P63159); assay: OpenSPR; TN or HMGB1 on the chip (His-tag or carboxyl groups); this end taken as HMGB1 on chip, TN applied (inferred, since 2.88 nM is tied to the TN chip at paragraph 223)

| Substance | SPR response signal [1] | SPR response signal [2] | fold increase of KD [3] | Kd [4] | Kd [5] | Kd [6] | Kd [7] | Kd [8] |
| --- | --- | --- | --- | --- | --- | --- | --- | --- |
| recombinant CBP-HMGB1 (rat HMGB1 with a calmodulin-binding peptide tag) (from UniProt P63159 1-215) | 150 AU | 35 AU | 6 fold | 1.21 to 2.88 nM | 18.5 nM | 2.88 nM |  |  |
| recombinant human tetranectin (TN), residue 22-202 with a C-terminal histidine tag (from UniProt P05452 22-202) |  |  |  |  |  |  | 1.21 nM | 1.21 to 2.88 nM |
